The results in this text go back to patent US20250000991A1, “NECTIN-4 ANTIBODIES AND ANTIBODY-DRUG CONJUGATES” (Eli Lilly and Company, priority 2023, published 2025).

The target in test [1] is human nectin-4 on cells (human) (UniProt Q96NY8). Put plainly: cell-based or functional assay.
The target of test [2] is human Nectin-4-eGFP on T24 cells (clone 3) (human) (UniProt Q96NY8). Put plainly: cell-based or functional assay.

B1: enfortumab ADC (enfortumab conjugated as in Formula XI, DAR of 8) (antibody, INN chains, looked up, V domains shown)
VH: EVQLVESGGGLVQPGGSLRLSCAASGFTFSSYNMNWVRQAPGKGLEWVSYISSSSSTIYYADSVKGRFTISRDNAKNSLSLQMNSLRDEDTAVYYCARAYYYGMDVWGQGTTVTVSS
VL: DIQMTQSPSSVSASVGDRVTITCRASQGISGWLAWYQQKPGKAPKFLIYAASTLQSGVPSRFSGSGSGTDFTLTISSLQPEDFATYYCQQANSFPPTFGGGTKVEIKR
modifications: drug conjugate Formula XI, DAR 8
In test [1], B1 showed a Cytotoxicity IC50, NCI H1781 cells of 0.0409 nM and a Cytotoxicity IC50, T24 Nectin-4 clone 108 cells of 0.0747 nM. Moreover, in test [2], the % activity (max GFP signal loss compared to enfortumab mAb (100%)) was found to be 120% and the EC50 (nM) of nectin-4-eGFP signal loss came to 2.55 nM.
